Laboratory results reported in the supplement of paper PMC10126150.
± gives the standard deviation of the averaged measurements.
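Also: ATP exposure 15 min at 22 °C before imaging.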

These sequences were tested on ATP (assay: switch fluorescence ratio, 500 uM ATP over buffer (Cy3 cluster intensity, sum of 5 cycles each) (fold (ratio)); higher = stronger signal-on switching upon ATP binding; sequences stand for … in TCGTCGGCAGCGTCAGATGTGTATAAGAGACAGTTTTTTTTTTTTTTTTTTTTTTTTT…TC). Details: aptamer strand: ATP DNA aptamer (quencher-CACCTGGGGGAGTATTGCGGAGGAAGG + anchor), 100 nM annealed; ATP concentration: 500 uM.
In short: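 Switching-strand clusters labelled with Cy3 on a modified Illumina MiSeq flow-cell were annealed to 100 nM quencher-labelled ATP aptamer, imaged in selection buffer, and re-imaged after 15 min with 500 uM ATP at 22 °C. This was done over five cycles with NaOH stripping and re-annealing in between. The fluorescence ratio is summed target-cycle over summed buffer-cycle Cy3 intensity per cluster, averaged per switch-domain sequence, excluding clusters outside 100-1000 RFU.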
AAACAAAAAT showed a switch fluorescence ratio of 1.01 ± 0.012.
In the case of AAACAATGTG, the switch fluorescence ratio is reported as 0.972 ± 0.013.
Sequence AAACAGAATG has a switch fluorescence ratio of 0.975 ± 0.014.
In the case of AAACAGGTTG, the switch fluorescence ratio is reported as 1.05 ± 0.019.
AAACATGGAG was tested, and the switch fluorescence ratio was 1 ± 0.019.
For AAACATGGTG, the switch fluorescence ratio was 1.03 ± 0.022.
Work on AAACCCTGAG yielded a switch fluorescence ratio of 1.14 ± 0.2.
Sequence AAACGATGTT has a switch fluorescence ratio of 1.02 ± 0.055.
Work on AAACGCAACC yielded a switch fluorescence ratio of 1.57 ± 0.089.
AAACGCCTGC was tested, and the switch fluorescence ratio was 1.08 ± 0.026.
With AAACGGAG the switch fluorescence ratio was 1.007 ± 0.0081.
Sequence AAACGGATGG has a switch fluorescence ratio of 0.968 ± 0.016.
For AAACGGATTC, the switch fluorescence ratio was 0.999 ± 0.052.
AAACGGGGGG gave a switch fluorescence ratio of 0.99 ± 0.024.
AAACGGGGTA was tested, and the switch fluorescence ratio was 1.01 ± 0.033.
For AAACGGGTTC, the switch fluorescence ratio was 1.01 ± 0.036.
AAACGGTAGC gave a switch fluorescence ratio of 1.07 ± 0.017.
Sequence AAACGTACTT has a switch fluorescence ratio of 1.58 ± 0.086.
With AAACGTGAGT the switch fluorescence ratio was 0.985 ± 0.01.
Work on AAACTAGCGG yielded a switch fluorescence ratio of 1.02 ± 0.016.
In the case of AAACTAGCTG, the switch fluorescence ratio is reported as 1 ± 0.025.
In the case of AAACTCAACG, the switch fluorescence ratio is reported as 1.08 ± 0.031.
In the case of AAACTCTCCA, the switch fluorescence ratio is reported as 1.04 ± 0.02.
Work on AAACTGGAT yielded a switch fluorescence ratio of 1.01 ± 0.033.
AAACTGGGAT was tested, and the switch fluorescence ratio was 1.01 ± 0.033.
AAACTGTACT gave a switch fluorescence ratio of 1.425 ± 0.0099.
In the case of AAACTTAGCA, the switch fluorescence ratio is reported as 1.02 ± 0.012.
With AAACTTCGGG the switch fluorescence ratio was 1 ± 0.026.
With AAACTTGGGG the switch fluorescence ratio was 1 ± 0.035.
AAAGAAAGGT was tested, and the switch fluorescence ratio was 1.02 ± 0.024.
For AAAGAAGTGG, the switch fluorescence ratio was 0.959 ± 0.027.
In the case of AAAGAATTCA, the switch fluorescence ratio is reported as 1.05 ± 0.051.
AAAGACGCGG was tested, and the switch fluorescence ratio was 0.992 ± 0.015.
In the case of AAAGACGTTT, the switch fluorescence ratio is reported as 1 ± 0.016.
For AAAGAGCAAG, the switch fluorescence ratio was 1.11 ± 0.034.
AAAGATAGGC was tested, and the switch fluorescence ratio was 0.954 ± 0.072.
Work on AAAGATCGGA yielded a switch fluorescence ratio of 0.983 ± 0.038.
AAAGATTGAC was tested, and the switch fluorescence ratio was 1.01 ± 0.08.
AAAGCACTAG showed a switch fluorescence ratio of 1.11 ± 0.055.
AAAGCACTTT showed a switch fluorescence ratio of 1.099 ± 0.0022.
In the case of AAAGCCCGCG, the switch fluorescence ratio is reported as 0.961 ± 0.066.
Sequence AAAGCGGATT has a switch fluorescence ratio of 1 ± 0.018.
In the case of AAAGCTCGCT, the switch fluorescence ratio is reported as 0.973 ± 0.015.
AAAGCTTTGG gave a switch fluorescence ratio of 0.963 ± 0.021.
For AAAGGAAATT, the switch fluorescence ratio was 1 ± 0.033.
With AAAGGAGGTA the switch fluorescence ratio was 1 ± 0.012.
AAAGGATCGG was tested, and the switch fluorescence ratio was 0.9923 ± 0.0056.
AAAGGCAAAG was tested, and the switch fluorescence ratio was 0.9971 ± 0.0082.
In the case of AAAGGCGTGG, the switch fluorescence ratio is reported as 0.9555 ± 0.0064.
AAAGGCTTGG gave a switch fluorescence ratio of 0.992 ± 0.015.
Work on AAAGGGAAAA yielded a switch fluorescence ratio of 1 ± 0.028.
In the case of AAAGGGACGT, the switch fluorescence ratio is reported as 0.991 ± 0.051.
For AAAGGGCAAT, the switch fluorescence ratio was 1.14 ± 0.18.
AAAGGGCGAT was tested, and the switch fluorescence ratio was 0.976 ± 0.011.
Sequence AAAGGGCGGC has a switch fluorescence ratio of 0.992 ± 0.018.
In the case of AAAGGGGCGC, the switch fluorescence ratio is reported as 0.993 ± 0.035.
AAAGGGGGCA showed a switch fluorescence ratio of 0.99 ± 0.031.
With AAAGGGGGGC the switch fluorescence ratio was 1 ± 0.057.
With AAAGGGGGTC the switch fluorescence ratio was 1.01 ± 0.039.
AAAGGGGTAT was tested, and the switch fluorescence ratio was 1.03 ± 0.027.
With AAAGGGGTTG the switch fluorescence ratio was 1.01 ± 0.072.
Work on AAAGGGTAAG yielded a switch fluorescence ratio of 0.975 ± 0.015.
For AAAGGGTCGA, the switch fluorescence ratio was 1.02 ± 0.03.
AAAGGGTGAG showed a switch fluorescence ratio of 0.9726 ± 0.0064.
In the case of AAAGGGTGCT, the switch fluorescence ratio is reported as 1.1 ± 0.015.
For AAAGGTAACG, the switch fluorescence ratio was 1.001 ± 0.0021.
With AAAGGTCAT the switch fluorescence ratio was 0.9933 ± 0.0018.
With AAAGGTGCCT the switch fluorescence ratio was 1.05 ± 0.031.
AAAGGTGGCG gave a switch fluorescence ratio of 1.07 ± 0.19.
Sequence AAAGGTTTAC has a switch fluorescence ratio of 0.978 ± 0.025.
For AAAGTACTCG, the switch fluorescence ratio was 1.12 ± 0.0043.
Work on AAAGTAGTGT yielded a switch fluorescence ratio of 1.024 ± 0.004.
With AAAGTCATGT the switch fluorescence ratio was 1.02 ± 0.05.
In the case of AAAGTCGCGC, the switch fluorescence ratio is reported as 1.01 ± 0.018.
AAAGTCTGAT was tested, and the switch fluorescence ratio was 0.959 ± 0.027.
AAAGTCTTGT showed a switch fluorescence ratio of 1.01 ± 0.035.
With AAAGTGAAGG the switch fluorescence ratio was 0.996 ± 0.027.
